Measurements: patent publication US20240270846A1 (published 2024)
Changes are numbered by the printed parent chain. Names may count otherwise.

B1: CE115HA000 G98Q one-arm antibody (antibody, human IgG1, kappa, L234A L235A, N297A, name in Kabat numbering)
heavy: QVQLVESGGGVVQPGRSLRLSCAASGFTFSNAWMHWVRQAPGKGLEWVAQIKAKSNNYATYYAESVKGRFTISRDDSKNSLYLQMNSLKTEDTAVYYCRYVHYQAYYGVDAWGQGTTVTVSSASTKGPSVFPLAPSSKSTSGGTAALGCLVKDYFPEPVTVSWNSGALTSGVHTFPAVLQSSGLYSLSSVVTVPSSSLGTQTYICNVNHKPSNTKVDKKVEPKSCDKTHTCPPCPAPEAAGGPSVFLFPPKPKDTLMISRTPEVTCVVVDVSHEDPEVKFNWYVDGVEVHNAKTKPREEQYASTYRVVSVLTVLHQDWLNGKEYKCKVSNKALPAPIEKTISKAKGQPREPQVYTLPPSRCELTKNQVSLSCAVKGFYPSDIAVEWESNGQPENNYKTTPPVLDSDGSFFLVSKLTVDKSRWQQGNVFSCSVMHEALHNHYTQKSLSLSPDYKDDDDK
chain: EPKSSDKTHTCPPCPAPELLGGPSVFLFPPKPKDTLMISRTPEVTCVVVDVSHEDPEVKFNWYVDGVEVHNAKTKPREEQYNSTYRVVSVLTVLHQDWLNGKEYKCKVSNKALPAPIEKTISKAKGQPREPQVCTLPPSRDELTKNQVSLWCLVKGFYPSDIAVEWESNGQPENNYKTTPPVLDSDGSFFLYSKLTVDKSRWQQGNVFSCSVMHEALHNRYTQKSLSLSP
light: DIVMTQSPLSLPVTPGEPASISCRSSQSLVHSNRNTYLHWYQQKPGQAPRLLIYKVSNRFSGVPDRFSGSGSGTDFTLKISRVEAEDVGVYYCGQGTQVPYTFGQGTKLEIKRTVAAPSVFIFPPSDEQLKSGTASVVCLLNNFYPREAKVQWKVDNALQSGNSQESVTEQDSKDSTYSLSSTLTLSKADYEKHKVYACEVTHQGLSSPVTKSFNRGEC
notes: one-arm antibody
B2: CE115HA000 H96R one-arm antibody (antibody, human IgG1, kappa, L234A L235A, N297A, name in Kabat numbering)
heavy: B1 heavy with H102R, Q104G
chain: B1 chain
light: B1 light
notes: one-arm antibody
B3: CE115HA000 S62D one-arm antibody (antibody, human IgG1, kappa, L234A L235A, N297A, name in Kabat numbering)
heavy: B1 heavy with S65D, Q104G
chain: B1 chain
light: B1 light
notes: one-arm antibody
B4: CE115HA000 G98S one-arm antibody (antibody, human IgG1, kappa, L234A L235A, N297A, name in Kabat numbering)
heavy: B1 heavy with Q104S
chain: B1 chain
light: B1 light
notes: one-arm antibody
B5: CE115HA000 H96S one-arm antibody (antibody, human IgG1, kappa, L234A L235A, N297A, name in Kabat numbering)
heavy: B1 heavy with H102S, Q104G
chain: B1 chain
light: B1 light
notes: one-arm antibody
B6: CE115HA000 K64A one-arm antibody (antibody, human IgG1, kappa, L234A L235A, N297A, name in Kabat numbering)
heavy: B1 heavy with K67A, Q104G
chain: B1 chain
light: B1 light
notes: one-arm antibody
B7: CE115HA000 G100bL one-arm antibody (antibody, human IgG1, kappa, L234A L235A, N297A, name in Kabat numbering)
heavy: B1 heavy with Q104G, G108L
chain: B1 chain
light: B1 light
notes: one-arm antibody
B8: CE115HA000 K64D one-arm antibody (antibody, human IgG1, kappa, L234A L235A, N297A, name in Kabat numbering)
heavy: B1 heavy with K67D, Q104G
chain: B1 chain
light: B1 light
notes: one-arm antibody
B9: CE115HA000 L78I one-arm antibody (antibody, human IgG1, kappa, L234A L235A, N297A, name in Kabat numbering)
heavy: B1 heavy with L81I, Q104G
chain: B1 chain
light: B1 light
notes: one-arm antibody
B10: CE115HA000 G100bY one-arm antibody (antibody, human IgG1, kappa, L234A L235A, N297A, name in Kabat numbering)
heavy: B1 heavy with Q104G, G108Y
chain: B1 chain
light: B1 light
notes: one-arm antibody
B11: CE115HA000 Q105E one-arm antibody (antibody, human IgG1, kappa, L234A L235A, N297A, name in Kabat numbering)
heavy: B1 heavy with Q104G, Q114E
chain: B1 chain
light: B1 light
notes: one-arm antibody
B12: CE115HA000 G98Y one-arm antibody (antibody, human IgG1, kappa, L234A L235A, N297A, name in Kabat numbering)
heavy: B1 heavy with Q104Y
chain: B1 chain
light: B1 light
notes: one-arm antibody
B13: CE115HA000 G100bE one-arm antibody (antibody, human IgG1, kappa, L234A L235A, N297A, name in Kabat numbering)
heavy: B1 heavy with Q104G, G108E
chain: B1 chain
light: B1 light
notes: one-arm antibody
B14: CE115HA000 H96Y one-arm antibody (antibody, human IgG1, kappa, L234A L235A, N297A, name in Kabat numbering)
heavy: B1 heavy with H102Y, Q104G
chain: B1 chain
light: B1 light
notes: one-arm antibody
B15: CE115HA000 G100bF one-arm antibody (antibody, human IgG1, kappa, L234A L235A, N297A, name in Kabat numbering)
heavy: B1 heavy with Q104G, G108F
chain: B1 chain
light: B1 light
notes: one-arm antibody
B16: CE115HA000 G100bS one-arm antibody (antibody, human IgG1, kappa, L234A L235A, N297A, name in Kabat numbering)
heavy: B1 heavy with Q104G, G108S
chain: B1 chain
light: B1 light
notes: one-arm antibody
B17: CE115HA000 K64E one-arm antibody (antibody, human IgG1, kappa, L234A L235A, N297A, name in Kabat numbering)
heavy: B1 heavy with K67E, Q104G
chain: B1 chain
light: B1 light
notes: one-arm antibody
B18: CE115HA000 H96K one-arm antibody (antibody, human IgG1, kappa, L234A L235A, N297A, name in Kabat numbering)
heavy: B1 heavy with H102K, Q104G
chain: B1 chain
light: B1 light
notes: one-arm antibody
B19: CE115HA000 S62K one-arm antibody (antibody, human IgG1, kappa, L234A L235A, N297A, name in Kabat numbering)
heavy: B1 heavy with S65K, Q104G
chain: B1 chain
light: B1 light
notes: one-arm antibody
B20: CE115HA000 S62E one-arm antibody (antibody, human IgG1, kappa, L234A L235A, N297A, name in Kabat numbering)
heavy: B1 heavy with S65E, Q104G
chain: B1 chain
light: B1 light
notes: one-arm antibody
B21: CE115HA000 H96L one-arm antibody (antibody, human IgG1, kappa, L234A L235A, N297A, name in Kabat numbering)
heavy: B1 heavy with H102L, Q104G
chain: B1 chain
light: B1 light
notes: one-arm antibody
B22: CE115HA000 G100bD one-arm antibody (antibody, human IgG1, kappa, L234A L235A, N297A, name in Kabat numbering)
heavy: B1 heavy with Q104G, G108D
chain: B1 chain
light: B1 light
notes: one-arm antibody
B23: CE115HA000 N82aD one-arm antibody (antibody, human IgG1, kappa, L234A L235A, N297A, name in Kabat numbering)
heavy: B1 heavy with N86D, Q104G
chain: B1 chain
light: B1 light
notes: one-arm antibody
B24: CE115HA000 H96Q one-arm antibody (antibody, human IgG1, kappa, L234A L235A, N297A, name in Kabat numbering)
heavy: B1 heavy with H102Q, Q104G
chain: B1 chain
light: B1 light
notes: one-arm antibody
B25: CE115HA000 N76S one-arm antibody (antibody, human IgG1, kappa, L234A L235A, N297A, name in Kabat numbering)
heavy: B1 heavy with N79S, Q104G
chain: B1 chain
light: B1 light
notes: one-arm antibody
B26: CE115HA000 K64S one-arm antibody (antibody, human IgG1, kappa, L234A L235A, N297A, name in Kabat numbering)
heavy: B1 heavy with K67S, Q104G
chain: B1 chain
light: B1 light
notes: one-arm antibody
B27: CE115HA000 H96G one-arm antibody (antibody, human IgG1, kappa, L234A L235A, N297A, name in Kabat numbering)
heavy: B1 heavy with H102G, Q104G
chain: B1 chain
light: B1 light
notes: one-arm antibody
B28: CE115HA000 K75T one-arm antibody (antibody, human IgG1, kappa, L234A L235A, N297A, name in Kabat numbering)
heavy: B1 heavy with K78T, Q104G
chain: B1 chain
light: B1 light
notes: one-arm antibody
B29: CE115HA000 G98R one-arm antibody (antibody, human IgG1, kappa, L234A L235A, N297A, name in Kabat numbering)
heavy: B1 heavy with Q104R
chain: B1 chain
light: B1 light
notes: one-arm antibody
B30: CE115HA000 K64Q one-arm antibody (antibody, human IgG1, kappa, L234A L235A, N297A, name in Kabat numbering)
heavy: B1 heavy with K67Q, Q104G
chain: B1 chain
light: B1 light
notes: one-arm antibody
B31: CE115HA000 K75R one-arm antibody (antibody, human IgG1, kappa, L234A L235A, N297A, name in Kabat numbering)
heavy: B1 heavy with K78R, Q104G
chain: B1 chain
light: B1 light
notes: one-arm antibody
B32: CE115HA000 G98T one-arm antibody (antibody, human IgG1, kappa, L234A L235A, N297A, name in Kabat numbering)
heavy: B1 heavy with Q104T
chain: B1 chain
light: B1 light
notes: one-arm antibody

What follows are binders tested against T1, CD3 epsilon homodimer protein (UniProt P07766 23-126) (assay: SPR (Biacore T200), CD3 epsilon homodimer on CM4 chip, one-arm antibody as analyte; ratio to unaltered CE115HA000;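 also: surface plasmon resonance run at 25 °C with HBS-EP+ as running buffer, CD3 epsilon homodimer attached by amine coupling, antibody passed over as analyte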).
T1 construct: Construct of the homodimer protein is not described; also called CD3 (CD3 epsilon)
T1 sequence (P07766 23-126): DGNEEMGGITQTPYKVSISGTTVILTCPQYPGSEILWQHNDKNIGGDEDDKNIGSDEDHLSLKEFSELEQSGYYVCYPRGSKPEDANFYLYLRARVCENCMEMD

KD ratio (KD value of CE115HA000/KD value of the altered form)	Binder
1.04	B1
1.59	B2
0.87	B3
0.98	B4
1.15	B5
0.81	B6
5.84	B7
0.76	B8
1.08	B9
51.4	B10
0.89	B11
2.75	B12
7.29	B13
6.67	B14
4.37	B15
1.25	B16

KD ratio (KD value of CE115HA000/KD value of the altered form)	Binder
0.84	B17
1.56	B18
0.99	B19
0.82	B20
3.14	B21
6.25	B22
0.56	B23
1.36	B24
0.84	B25
0.85	B26
0.8	B27
0.75	B28
4.69	B29
0.87	B30
0.88	B31
0.93	B32
